Three molecules from US20230043813A1, “METHODS FOR TARGETED CELL DEPLETION” (The Regents of the University of California, priority 2019, published 2023) can be followed below.

The target of test [1] is T1, WNV protease (Kunjin virus, UniProt P14335).
T1 construct: expressed in transfected cells; host or cells: HEK293T (293FT)
As to the kind of experiment: immunoblot of ProCas9Flavi activation in HEK293T. It counts as cell-based, human. Particulars: HEK293T co-transfected with WNV protease. On the procedure:
HEK293T (293FT; Thermo Fisher Scientific) were co-transfected with the indicated plasmids expressing Cas9-wt or ProCas9-Flavi and plasmids expressing dTEV or WNV protease. HEK293T cells were split to reach a confluency of 70%-90% at time of transfection. For transfections in 6-well plates, 1 μg Cas9-sgRNA vector and 0.75 μg protease vector (if applicable) were mixed in 0.4 mL Opti-MEM, followed by addition of 5.25 μg polyethylenimine (PEI; Polysciences #23966). After 20-30 min incubation at room temperature, the transfection reactions were dispersed over the HEK293T cells. Media was changed 12-hour post-transfection. At 36-hour post-transfection, HEK293T were washed in ice-cold PBS and scraped from the plates. Cell pellets were lysed in Laemmli buffer (62.5 mMTris-HCl pH 6.8, 10% glycerol, 2% SDS, 5% 2-mercaptoethanol). Equal amounts of protein were separated on 4%-20% Mini-PROTEAN TGX gels (Bio-Rad, #456-1095) and transferred to 0.2 μm PVDF membranes (Bio-Rad, #162-0177). Blots were blocked in 5% milk in TBST 0.1% (TBS+[…]) for 1 hour; all antibodies were incubated in 5% milk in TBST 0.1% at 4° C. overnight; blots were washed in TBST 0.1%. The abundance of b-actin (ACTB) was monitored to ensure equal loading. […]

Test [2] deals with GFP or RFP expression in E. coli MG1655. As to the kind of experiment: E. coli CRISPRi GFP/RFP repression assay. It counts as cell-based. As to the method:
Assays were performed using methods like those described by Oakes et al. (2016).
Endpoint Assay: Cells were picked in biological triplicate into 96 well plates containing 500 μL EZ MOPS plus Carb and CM. Plates were grown in 37° C. shakers for twelve hours. Next, cells were diluted 1:1000 in 500 μL EZ MOPS plus Carb, CM, IPTG and aTc. Two hundred nM aTc was used to induce Cas9-CPs or ProCas9s and 50 μM IPTG levels was used to induce the proteases in a 2 mL deep well blocks and shaken at 750 rpm at 37° C. After an eight-twelve-hour induction and growth period, 20 μL of cells were added to 80 μL of water and put into a 96-well microplate reader (Tecan M1000) at 37° C. and read immediately. Each well was measured for optical density at 600 nm and GFP or RFP fluorescence. GFP expression was normalized by dividing it with OD600. In the case of the time course assays, 150 μL of the 1:1000 dilution was used and placed into a black walled clear bottom plate (3631-Corning) and directly into the Tecan M1000 for a 130× 600 s kinetic cycle of reading. For E. coli single cell analysis, cells from the endpoint time course were run on a Sony SH800 to capture 100,000 events per sample.

Test [3] concerns GFP reporter in HEK-RT1 cells. As to the kind of experiment: rapid mammalian genome editing reporter assay (HEK-RT1, GFP disruption). It counts as cell-based, human.
Source text: To establish a rapid and quantitative way to reliably assess genome editing efficiency from various CRISPR-Cas constructs in mammalian cells, a fluorescence-based reporter assay was built. […] To quantify this effect, HEK293T cells were stably transduced with a retroviral vector (LMP-Pten.1524) constitutively expressing GFP (Fellmann et al., 2013), and established monoclonal derivatives.
Specifically, inducible monoclonal HEK293T-based genome editing reporter cells, referred to as “HEK-RT1,” were established in a two-step procedure. In the first step, puromycin resistant monoclonal HEK-RT3-4 reporter cells were generated (Park et al., 2018). In brief, HEK293T human embryonic kidney cells were transduced at low-copy with the amphotropic pseudotyped RT3GEPIR-Ren.713 retroviral vector (Fellmann et al., 2013), comprising an all-in-one Tet-On system enabling doxycycline-controlled GFP expression. After puromycin (2.0 μg/ml) selection of transduced HEK239 Ts, 36 clones were isolated and individually assessed for i) growth characteristics, ii) homogeneous morphology, iii) sharp fluorescence peaks of doxycycline (1 μg/ml) inducible GFP expression, iv) relatively low fluorescence intensity to favor clones with single-copy reporter integration, and v) high transfectability.
Since HEK-RT3-4 are puromycin resistant, in the second step, monoclonal HEK-RT1 and analogous sister reporter cell lines were derived by transient transfection of HEK-RT3-4 cells with a pair of vectors encoding Cas9 and guide RNAs targeting puromycin (sgPuro5, sgPuro6), followed by identification of monoclonal derivatives that are puromycin sensitive. In total, eight clones were isolated and individually assessed for i) growth characteristics, ii) homogeneous morphology, iii) doxycycline (1 μg/ml) inducible and reversible GFP fluorescence, and v) puromycin and hygromycin B sensitivity. […] The HEK-RT1 cell line was chosen as rapid mammalian genome editing reporter system for all further assays.
A guide RNA targeting the GFP fluorescence reporter (sgGFP9) was compared to a non-targeting control (sgNT). […] GFP expression in HEK-RT1 reporter cells was induced for 24-48 hour using doxycycline (1 μg/ml; Sigma-Aldrich), at the indicated days post-editing.
The test system of test [4] is PCSK9 locus. Nature of the test: editing at the endogenous PCSK9 locus (T7E1 assay, TIDE). It counts as cell-based, human. The settings on record: guide sgPCSK9-4, WNV protease vs dTEV; A549 and HAP1.
Procedure: Unless otherwise noted, error bars indicate the standard deviation of triplicates, and significance was assessed by comparing samples to their respective controls using unpaired, two-tailed t tests (alpha=0.05). Genome editing quantification using TIDE was carried out as recommended (Brinkman et al., 2014). In brief, indels ranging from −10 to +10 nucleotides were quantified. Parental cells were used as reference for normalization. When reporting TIDE editing efficiencies, only indels with p values <0.01 in at least one replicate were considered true.

T1 sequence (P14335 1506-2124): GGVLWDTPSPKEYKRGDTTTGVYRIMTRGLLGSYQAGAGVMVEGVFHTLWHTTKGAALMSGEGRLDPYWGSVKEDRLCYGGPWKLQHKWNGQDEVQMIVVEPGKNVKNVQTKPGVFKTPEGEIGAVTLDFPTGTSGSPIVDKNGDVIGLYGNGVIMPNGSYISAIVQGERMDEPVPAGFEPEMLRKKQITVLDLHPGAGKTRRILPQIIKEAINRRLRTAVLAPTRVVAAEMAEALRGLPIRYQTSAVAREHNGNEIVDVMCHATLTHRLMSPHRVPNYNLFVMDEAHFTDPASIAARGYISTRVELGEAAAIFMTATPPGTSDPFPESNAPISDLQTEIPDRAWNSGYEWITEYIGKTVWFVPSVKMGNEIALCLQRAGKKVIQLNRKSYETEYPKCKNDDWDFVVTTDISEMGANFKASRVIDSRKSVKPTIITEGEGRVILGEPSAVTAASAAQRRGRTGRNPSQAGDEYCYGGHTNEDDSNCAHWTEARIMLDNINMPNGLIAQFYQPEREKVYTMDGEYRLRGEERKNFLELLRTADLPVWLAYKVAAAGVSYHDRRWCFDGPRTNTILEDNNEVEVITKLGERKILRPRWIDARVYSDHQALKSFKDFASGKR
T1 sequence (P14335 1375-1505): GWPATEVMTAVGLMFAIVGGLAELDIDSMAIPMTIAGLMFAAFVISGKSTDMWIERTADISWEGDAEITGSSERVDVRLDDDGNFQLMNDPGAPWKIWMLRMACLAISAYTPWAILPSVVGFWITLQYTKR

B1: ProCas9Flavi: ProCas9 with WNV linker sequence KQKKR/GGK, Flavivirus protease-sensitive caged Cas9 (SEQ ID NO:50) (protein)
chain: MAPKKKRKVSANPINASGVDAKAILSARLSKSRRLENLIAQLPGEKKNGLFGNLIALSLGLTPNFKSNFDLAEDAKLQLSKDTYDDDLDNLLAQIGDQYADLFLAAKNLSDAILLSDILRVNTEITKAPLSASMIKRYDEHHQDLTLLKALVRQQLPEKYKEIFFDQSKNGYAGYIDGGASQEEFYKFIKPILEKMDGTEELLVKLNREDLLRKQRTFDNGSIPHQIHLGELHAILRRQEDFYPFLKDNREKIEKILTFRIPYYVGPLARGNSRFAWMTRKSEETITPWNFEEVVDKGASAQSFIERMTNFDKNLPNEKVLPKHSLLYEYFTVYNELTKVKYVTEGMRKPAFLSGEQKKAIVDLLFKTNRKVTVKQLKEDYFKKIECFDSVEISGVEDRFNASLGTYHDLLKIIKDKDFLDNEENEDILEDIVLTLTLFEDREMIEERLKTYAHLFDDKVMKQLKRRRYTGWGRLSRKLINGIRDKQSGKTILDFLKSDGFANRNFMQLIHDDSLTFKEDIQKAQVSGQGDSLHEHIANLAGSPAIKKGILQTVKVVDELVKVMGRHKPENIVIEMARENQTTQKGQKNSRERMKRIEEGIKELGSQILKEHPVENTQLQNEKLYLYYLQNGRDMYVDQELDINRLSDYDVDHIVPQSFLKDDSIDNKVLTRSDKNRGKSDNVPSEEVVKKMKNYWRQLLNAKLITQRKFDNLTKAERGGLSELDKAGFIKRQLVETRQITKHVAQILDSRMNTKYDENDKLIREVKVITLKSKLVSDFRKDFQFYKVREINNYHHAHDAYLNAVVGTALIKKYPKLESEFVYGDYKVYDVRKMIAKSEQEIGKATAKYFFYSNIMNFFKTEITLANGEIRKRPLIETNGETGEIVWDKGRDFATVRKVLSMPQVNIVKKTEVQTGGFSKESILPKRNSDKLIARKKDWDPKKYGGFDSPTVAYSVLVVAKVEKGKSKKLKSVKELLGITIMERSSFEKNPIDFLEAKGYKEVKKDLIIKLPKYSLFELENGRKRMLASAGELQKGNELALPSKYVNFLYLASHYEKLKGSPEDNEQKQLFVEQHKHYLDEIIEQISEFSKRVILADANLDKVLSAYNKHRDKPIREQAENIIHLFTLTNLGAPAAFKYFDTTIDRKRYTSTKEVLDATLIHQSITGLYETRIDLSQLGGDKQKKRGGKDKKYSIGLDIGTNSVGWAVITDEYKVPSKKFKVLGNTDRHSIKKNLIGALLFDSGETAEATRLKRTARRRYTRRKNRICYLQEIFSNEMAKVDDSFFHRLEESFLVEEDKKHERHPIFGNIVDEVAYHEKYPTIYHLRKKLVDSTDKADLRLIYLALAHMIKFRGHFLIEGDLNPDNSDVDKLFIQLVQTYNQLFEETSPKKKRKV
For the molecule B1, the “activation (cleavage into two subunits) by immunoblot” value in test [1] is “vast majority of vigilant ProCas9Flavi was activated and observed as two distinct subunits”. Further, the “ProCas9 activation by co-expressed viral proteases” value in test [2] (Cas9-CP199 with protease cleavage site as CP linker) is “activated by NS2B-NS3 proteases from both Zika and WNV”. The GFP disruption result in test [3] (transient transfection, with active or deactivated proteases) is reported as “GFP disruption only in the presence of the active proteases”.

B2: EF1a-ProCas9Flavi: ProCas9Flavi expressed from the strong full-length EF1a promoter, stably integrated lentiviral vector (protein)
chain: B1 chain
For the molecule B2, in test [4], the “protease-sensitive editing at the PCSK9 locus (T7E1)” value is reported as “clear genome editing in the presence of WNV protease”. In addition, the genome editing entry in test [3] (stable expression of WNV protease, out to 8 days) is given as “about 35%”; in test [3] (stably transduced WNV protease (FIG. 4F)) it was “over 25%”. Moreover, the “genome editing efficiency after transient protease transfection” value in test [3] (stably integrated ProCas9, ZIKV, WNV proteases, mTagBFP2-positive cells) is reported as “highest genome editing efficiency”.

B3: CP199: Cas9 circular permutant, new start site aa 199 (SEQ ID NO:44); linker varies by experiment (protein)
chain: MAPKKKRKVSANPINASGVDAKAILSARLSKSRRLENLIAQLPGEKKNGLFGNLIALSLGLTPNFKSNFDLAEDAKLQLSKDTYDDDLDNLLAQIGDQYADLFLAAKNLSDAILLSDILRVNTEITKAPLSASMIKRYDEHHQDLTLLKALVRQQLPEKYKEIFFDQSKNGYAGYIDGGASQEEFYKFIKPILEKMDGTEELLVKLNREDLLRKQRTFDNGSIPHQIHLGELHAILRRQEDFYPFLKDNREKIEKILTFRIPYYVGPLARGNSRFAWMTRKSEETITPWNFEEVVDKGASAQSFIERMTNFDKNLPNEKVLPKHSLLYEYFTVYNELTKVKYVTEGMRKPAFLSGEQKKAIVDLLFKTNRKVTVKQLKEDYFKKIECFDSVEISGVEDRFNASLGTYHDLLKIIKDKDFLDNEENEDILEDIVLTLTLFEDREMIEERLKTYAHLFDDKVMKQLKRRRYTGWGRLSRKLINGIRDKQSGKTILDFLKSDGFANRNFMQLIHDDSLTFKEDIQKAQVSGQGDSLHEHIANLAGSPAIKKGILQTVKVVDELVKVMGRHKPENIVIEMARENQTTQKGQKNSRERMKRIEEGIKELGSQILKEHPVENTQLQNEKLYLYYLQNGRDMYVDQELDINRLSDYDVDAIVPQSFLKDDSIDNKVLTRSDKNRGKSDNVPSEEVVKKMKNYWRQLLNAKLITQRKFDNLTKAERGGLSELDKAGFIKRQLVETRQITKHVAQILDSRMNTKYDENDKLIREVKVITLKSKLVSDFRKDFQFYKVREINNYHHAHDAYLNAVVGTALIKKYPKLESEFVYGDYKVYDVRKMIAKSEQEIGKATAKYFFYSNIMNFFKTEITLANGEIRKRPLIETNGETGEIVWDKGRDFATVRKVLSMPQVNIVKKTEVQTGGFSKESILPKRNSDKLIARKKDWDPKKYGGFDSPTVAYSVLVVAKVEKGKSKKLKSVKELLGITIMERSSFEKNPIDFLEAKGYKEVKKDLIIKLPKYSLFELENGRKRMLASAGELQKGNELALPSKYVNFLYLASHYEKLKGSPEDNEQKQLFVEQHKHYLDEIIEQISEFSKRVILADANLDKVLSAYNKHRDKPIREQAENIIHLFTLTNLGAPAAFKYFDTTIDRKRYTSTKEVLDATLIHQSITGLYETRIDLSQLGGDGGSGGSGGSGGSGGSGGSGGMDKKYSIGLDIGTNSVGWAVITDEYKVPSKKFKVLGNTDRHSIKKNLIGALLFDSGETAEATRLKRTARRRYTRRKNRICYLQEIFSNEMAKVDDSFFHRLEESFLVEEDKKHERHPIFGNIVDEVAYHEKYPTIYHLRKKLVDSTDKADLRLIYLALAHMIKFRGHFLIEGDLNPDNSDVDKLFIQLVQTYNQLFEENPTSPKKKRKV
B3: the “GFP repression activity with TEV protease” value in test [2] (7-amino acid TEV cleavage site (ENLYFQ/S) as linker, active TEV vs dTEV) is reported as “switched from completely off to fully on”.
